Assay results as given in the supplement of paper PMC9942255.
“And” between values parts separate entries of the source, which are not always exact repeats. Equal values may be shown once.

Tested on: Bacillus subtilis DB104 (SP-AmyQ fusion secretion)
Assay: AmyQ secretion efficiency, weighted average sort bin (1 = best secretion, 10 = worst) (bin number (weighted average, 1-10)); higher = lower secretion efficiency
Procedure, shortened: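 The secretion score was taken as the read-frequency-weighted mean bin number, normalised to beads per bin, with low-abundance sequences excluded. Bins came from large-particle flow cytometry sorting of occupied alginate beads (~65 nL, about 0.3 cells each, with fluorescein-starch) into 10 equally populated groups by green/red fluorescence ratio after about 13 h at room temperature and nile red staining. The cells were a B. subtilis DB104 library with mature AmyQ fused to designed signal peptides, integrated at amyE, and each bin's amplicons were Illumina-sequenced.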

Row | Sequence | AmyQ secretion efficiency
1 | MKRKLLSSLAISALSLGSAPTASFAAES | 3.3
2 | MKRKLLSSLAISASAPTASFAAES | 7.94
3 | MKRKLRRKRRKSALSLGLLVSAPTASFAAES | 7.05
4 | MKRKQQKSLAISALSLGLLVSAPTASFAAES | 3.07
5 | MKRKQYSGRKLSIIVAYPIQTNASPM | 6.49
6 | MKRKRFLIGAGVAAVILSGWFIADHQTHSQEM | 5.04
7 | MKRKRKRIMIFLTSFMLLAMTGQTALAKDV | 3.59
8 | MKRKRLFIFSAILTLSIFAPNETFAQTA | 1.57
9 | MKRKRLLSSLAISALSLGLLVSAPTASFAAES | 2.64 and 3.51
10 | MKRKRLLSTLLIGIMLLTFAPSAFAKQD | 1.87
11 | MKRKRRKMACLILFSFTITTFINTETISAFSN | 2.31
12 | MKRKRSIMACLILFSFTITTFINTETISAFSN | 3.86
13 | MKRKSCKLVVSVTLFFSFLTIGPLAHAQNS | 1.46
14 | MKRKSMSFSLSNLLSSLAISALSLGLLVSAPTASFAAES | 2.5
15 | MKRKTLSSLAISALSLGLLVSAPTASFAAES | 2.4
16 | MKRLALGAALTIAPLSFASAEEN | 5.98
17 | MKRLCKKRKVFSLFLVLLPGKALGAVD | 7.25
18 | MKRLCLWFTVFSLFLVLLPGKALGARR | 2.37
19 | MKRLCLWFTVFSLFLVLLPGKALGAVD | 3.84
20 | MKRLCLWFTVFSLFLVLLPGKALGKKR | 2.36
21 | MKRLCLWFTVFSLFLVLLPGKALYAVD | 4.11
22 | MKRLCLWFTVFSPGKALGAVD | 7.52
23 | MKRLCRKKRKKSLFLVLLPGKALGAVD | 7.45
24 | MKRLFISSAVLLSILLPSGQAHAQSA | 2.34
25 | MKRLFMKAKLVLFAVVFVFAVKGAPAKAETH | 2.67
26 | MKRLFMKARRKKKAVVFVFAVKGAPAKAETH | 8.85

Row | Sequence | AmyQ secretion efficiency
27 | MKRLFMKARRRLFAVVFVFAVKGAPAKAETH | 6.05
28 | MKRLFMKASLVLFAVVFVFAVKGADAKAETH | 2.52
29 | MKRLFMKASLVLFAVVFVFAVKGADEEDEEEAKAETH | 7.15
30 | MKRLFMKASLVLFAVVFVFAVKGAGAKAETH | 1.83
31 | MKRLFMKASLVLFAVVFVFAVKGAIAKAETH | 2.52
32 | MKRLFMKASLVLFAVVFVFAVKGAKRAKAETH | 2.04
33 | MKRLFMKASLVLFAVVFVFAVKGAPAKAADD | 3.6
34 | MKRLFMKASLVLFAVVFVFAVKGAPAKAAKR | 3.29
35 | MKRLFMKASLVLFAVVFVFAVKGAPAKAATH | 1.71
36 | MKRLFMKASLVLFAVVFVFAVKGAPAKADEE | 2.81
37 | MKRLFMKASLVLFAVVFVFAVKGAPAKGETH | 2.19
38 | MKRLFMKASLVLFAVVFVFAVKGAPIKAETH | 2.24
39 | MKRLFMKASLVLFAVVFVFAVKGAPKAKAETH | 1.9
40 | MKRLFMKASLVLFAVVFVFAVKGAPLKAETH | 2.67
41 | MKRLFMKASLVLFAVVFVFAVKGAPMKAETH | 1.95
42 | MKRLFMKASLVLFAVVFVFAVKGAPTKAETH | 2.27
43 | MKRLFMKASLVLFAVVFVFKPAKAETH | 3.15
44 | MKRLFMKGSLVLFAVVFVFAVKGAPAKAETH | 3.72
45 | MKRLFMKLLTTTASLVLFAVVFVFAVKGAPAKAETH | 2.87
46 | MKRLFMKSMASLVLFAVVFVFAVKGAPAKAETH | 2
47 | MKRLFMKSSKRLFAVVFVFAVKGAPAKAETH | 7.81
48 | MKRLFMKYKRYQKQVVFVFAVKGAPAKAETH | 7.88
49 | MKRLKKTLLIGIMLLTFAPSAFAKQD | 1.92
50 | MKRLKRRKLIGIMLLTFAPSAFAKQD | 4.68
51 | MKRLKVSLRVWMVFLMNWVTPDRKTAAAAVY | 6.85
52 | MKRLLILLLIIIMLLGGTTFAPSAFAKQD | 2

Row | Sequence | AmyQ secretion efficiency
53 | MKRLLLGILCSAAVFLIGAPSRALGAEV | 2.5
54 | MKRLLSSLAISALSLGLLVSAPTASFAAES | 2.75
55 | MKRLLSTLLIGIMLLEDEPSAFAKQD | 1.9
56 | MKRLLSTLLIGIMLLEQQPKAFAKQD | 1.64
57 | MKRLLSTLLIGIMLLFFAGVAFAKQD | 3.63
58 | MKRLLSTLLIGIMLLFFIFFTFAPSAFAKQD | 1.97
59 | MKRLLSTLLIGIMLLITTILVSTLTFAPSAFAKQD | 1.3
60 | MKRLLSTLLIGIMLLKRKRRRAFAKQD | 8.09
61 | MKRLLSTLLIGIMLLPKAPSAFAKQD | 2.61
62 | MKRLLSTLLIGIMLLTFAPSAFAAED | 2.37
63 | MKRLLSTLLIGIMLLTFAPSAFAAQD | 1.6
64 | MKRLLSTLLIGIMLLTFAPSAFAAQK | 1.73
65 | MKRLLSTLLIGIMLLTFAPSAFAAQQ | 1.25
66 | MKRLLSTLLIGIMLLTFAPSAFAKKR | 2.03
67 | MKRLLSTLLIGIMLLTFAPSAFCKQD | 2.6
68 | MKRLLSTLLIGIMLLTFAPSAFGKQD | 1.17
69 | MKRLLSTLLIGIMLLTFAPSAFWKQD | 6.93
70 | MKRLLSTLLIGIMLLTFAPSCFAKQD | 3.09
71 | MKRLLSTLLIGIMLLTFAPSMFAKQD | 2.35
72 | MKRLLSTLLIGIMLLTFAPSPAATVFPVAFAKQD | 1.66
73 | MKRLLSTLLIGIMLLTFAPSSFAKQD | 2.65
74 | MKRLLSTLLIGIMLLTFAPSTFAKQD | 1.72
75 | MKRLLSTLLIGIMLLTFAPSVFAKQD | 1.93
76 | MKRLLSTLLIGIMLLVTFAPSAFAKQD | 2.15
77 | MKRLLSTLLIGITFAPSAFAKQD | 2.73
78 | MKRLLVSLRVWMPDRKTAAAAVY | 6.76

Row | Sequence | AmyQ secretion efficiency
79 | MKRLLVSLRVWMVFLMNWVTPDRKTAAAAEE | 6.3
80 | MKRLLVSLRVWMVFLMNWVTPDRKTAAAAKK | 7.3
81 | MKRLLVSLRVWMVFLMNWVTPDRKTAAAAVD | 7.62
82 | MKRLLVSLRVWMVFLMNWVTPDRKTAAAAVY | 6.49
83 | MKRLLVSLRVWMVFLMNWVTPDRKTAAADED | 6.67
84 | MKRLLVSLRVWMVFLMNWVTPDRKTAAARRK | 7.14
85 | MKRLLVSLRVWMVFLMNWVTPDRKTAADAVY | 5.95
86 | MKRLLVSLRVWMVFLMNWVTPDRKTAAGAVY | 7.15
87 | MKRLLVSLRVWMVFLMNWVTPDRKTAAPAVY | 6.03
88 | MKRLLVSLRVWMVFLMNWVTPDRKTAARAVY | 5.96
89 | MKRLLVSLRVWMVFLMNWVTPDRKTAASAVY | 6.03
90 | MKRLLVSLRVWMVFLMNWVTPDRKTAAYAVY | 7.68
91 | MKRLLVSLRVWMVFLMNWVTPDRKTDAAAVY | 6.85
92 | MKRLLVSLRVWMVFLMNWVTPDRKTEAAAVY | 6.9
93 | MKRLLVSLRVWMVFLMNWVTPDRKTGAAAVY | 6.91
94 | MKRLLVSLRVWMVFLMNWVTPDRKTHAAAVY | 6.55
95 | MKRLLVSLRVWMVFLMNWVTPDRKTKAAAVY | 7.79
96 | MKRLLVSLRVWMVFLMNWVTPDRKTNAAAVY | 6.68
97 | MKRLLVSLRVWMVFLMNWVTPDRKTPAAAVY | 7.55
98 | MKRLLVSLRVWMVFLMNWVTPDRKTQAAAVY | 6.81
99 | MKRLLVSLRVWMVFLMNWVTPDRKTRAAAVY | 6.54
100 | MKRLLVSLRVWMVFLMNWVTPDRKTSAAAVY | 5.14
101 | MKRLLVSLRVWMVFLMNWVTPDRKTTPSGAAAAVY | 6.68
102 | MKRLLVSLRVWMVFLMNWVTPDRKTYAAAVY | 6.89
103 | MKRLLVSLRVWMVFLMNWVTPKRKTAAAAVY | 5.43
104 | MKRLLVSLRVWMVFLMNWVTRKRRKKAAAAVY | 5.91

Row | Sequence | AmyQ secretion efficiency
105 | MKRLLVSLRVWMVFLMNWVTVGRKTAAAAVY | 5.77
106 | MKRLLVSLRVWMVFLMPDRKTAAAAVY | 6.21
107 | MKRLRRKRKKGIMLLTFAPSAFAKQD | 7.07
108 | MKRLRRKRRRWMVFLMNWVTPDRKTAAAAVY | 6.85
109 | MKRLTLVCSIVFILEDLFYDLDIGTIPIQDLPVYEASAKTA | 7.06
110 | MKRLTLVCSIVFILFILFYDKDEASAKTA | 1.77
111 | MKRLTLVCSIVFILFILFYDLKIGTDEASAKTA | 4.35
112 | MKRLTLVCSIVFILFILFYDLKIGTIPIQDLPVYEESAKTA | 5.76
113 | MKRLTLVCSIVFILRKLFYRLKIGTIPIQKLPVYKASAKTA | 6.99
114 | MKRMCSICCAAVLLAGGAAQAEAV | 3.05
115 | MKRMIRTLPLLIVCLAFSSFSASARAASE | 2.17
116 | MKRMIVRMKRPSLIVCLAFSSFSASARAASE | 6.12
117 | MKRMIVRMTKKRRIVCLAFSSFSASARAASE | 5.68
118 | MKRMIVRMTKRKRRRCLAFSSFSASARAASE | 8.6
119 | MKRMIVRMTLMMTLPLLIVCLAFSSFSASARAASE | 2.08
120 | MKRMIVRMTLPLLIVCLAFSDFSASARAASE | 2.61
121 | MKRMIVRMTLPLLIVCLAFSKDSASARAASE | 1.93
122 | MKRMIVRMTLPLLIVCLAFSKKSASARAASE | 7.39
123 | MKRMIVRMTLPLLIVCLAFSSFSASAPVGARAASE | 2.02
124 | MKRMIVRMTLPLLIVCLAFSSFSASARAASF | 1.55
125 | MKRMIVRMTLPLLIVCLAFSSFSASARAEEE | 3.68
126 | MKRMIVRMTLPLLIVCLAFSSFSASARCASE | 4.35
127 | MKRMIVRMTLPLLIVCLAFSSFSASARNASE | 3.81
